Test results published in patent US20170355757A1 (Regeneron, published 2017).

T1: monkey C5-mmh (monkey, UniProt P01031 19-1676 (human entry), limits assumed)
T1 construct: recombinant, with C-terminal myc-myc-hexahistidine tag
T1 chain: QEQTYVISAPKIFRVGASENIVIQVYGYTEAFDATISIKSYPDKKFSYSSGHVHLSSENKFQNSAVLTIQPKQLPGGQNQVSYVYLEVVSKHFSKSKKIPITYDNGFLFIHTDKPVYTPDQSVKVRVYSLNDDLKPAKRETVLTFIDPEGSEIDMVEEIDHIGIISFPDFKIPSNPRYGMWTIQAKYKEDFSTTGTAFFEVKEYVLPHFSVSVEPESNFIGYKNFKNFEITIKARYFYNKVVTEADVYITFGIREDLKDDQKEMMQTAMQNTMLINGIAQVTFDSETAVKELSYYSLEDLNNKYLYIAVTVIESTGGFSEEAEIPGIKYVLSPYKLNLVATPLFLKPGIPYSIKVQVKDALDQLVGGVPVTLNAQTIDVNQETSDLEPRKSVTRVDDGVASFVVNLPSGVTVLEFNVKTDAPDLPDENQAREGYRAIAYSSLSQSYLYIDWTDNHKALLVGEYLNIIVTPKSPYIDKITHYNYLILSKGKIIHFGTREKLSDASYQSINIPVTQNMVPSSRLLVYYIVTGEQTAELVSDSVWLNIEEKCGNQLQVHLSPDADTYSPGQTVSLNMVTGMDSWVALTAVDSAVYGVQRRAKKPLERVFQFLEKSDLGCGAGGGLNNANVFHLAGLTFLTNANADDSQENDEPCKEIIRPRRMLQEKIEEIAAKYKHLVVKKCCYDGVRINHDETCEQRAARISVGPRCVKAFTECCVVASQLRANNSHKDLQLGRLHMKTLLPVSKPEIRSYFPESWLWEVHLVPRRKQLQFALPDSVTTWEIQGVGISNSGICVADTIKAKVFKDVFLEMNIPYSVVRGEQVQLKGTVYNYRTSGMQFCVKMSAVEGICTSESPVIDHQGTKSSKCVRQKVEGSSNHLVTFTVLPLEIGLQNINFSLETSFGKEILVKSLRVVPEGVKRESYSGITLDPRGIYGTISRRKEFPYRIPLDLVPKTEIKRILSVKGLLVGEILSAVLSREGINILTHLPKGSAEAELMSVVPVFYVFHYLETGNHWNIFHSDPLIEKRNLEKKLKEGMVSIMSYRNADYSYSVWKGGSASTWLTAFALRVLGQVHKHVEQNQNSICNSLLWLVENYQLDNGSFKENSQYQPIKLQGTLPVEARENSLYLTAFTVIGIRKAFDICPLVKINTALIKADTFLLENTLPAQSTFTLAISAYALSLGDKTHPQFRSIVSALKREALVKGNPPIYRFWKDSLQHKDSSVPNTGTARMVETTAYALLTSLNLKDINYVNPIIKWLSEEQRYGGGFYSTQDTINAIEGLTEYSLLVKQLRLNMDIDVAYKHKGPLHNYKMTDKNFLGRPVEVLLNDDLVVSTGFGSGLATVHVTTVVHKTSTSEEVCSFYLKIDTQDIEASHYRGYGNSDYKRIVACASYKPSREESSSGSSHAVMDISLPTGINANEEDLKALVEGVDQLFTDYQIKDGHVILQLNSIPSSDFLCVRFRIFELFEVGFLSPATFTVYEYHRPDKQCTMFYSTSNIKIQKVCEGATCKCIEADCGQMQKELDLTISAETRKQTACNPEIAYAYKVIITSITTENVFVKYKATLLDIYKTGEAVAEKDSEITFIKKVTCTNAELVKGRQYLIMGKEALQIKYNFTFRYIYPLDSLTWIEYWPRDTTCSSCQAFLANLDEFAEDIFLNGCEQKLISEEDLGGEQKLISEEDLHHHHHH

B1: H4H12166P2 (antibody, human IgG4, V domains shown)
VH: QVQLQESGPGLVKPSETLSLTCTVSGDSVSSSYWTWIRQPPGKGLEWIGYIYYSGSSNYNPSLKSRATISVDTSKNQFSLKLSSVTAADTAVYYCAREGNVDTTMIFDYWGQGTLVTVSS
VL: AIQMTQSPSSLSASVGDRVTITCRASQGIRNDLGWYQQKPGKAPKLLIYAASSLQSGVPSRFAGRGSGTDFTLTISSLQPEDFATYYCHQDFNYPWTFGQGTKVEIK
notes: histidine-mutated CDR variant of H4H12166P; human IgG4 (S108P)
B2: H4H12166P4 (antibody, human IgG4, V domains shown)
VH: QVQLQESGPGLVKPSETLSLTCTVSGDSVSSSYWTWIRQPPGKGLEWIGYIYYSGSSNYNPSLKSRATISVDTSKNQFSLKLSSVTAADTAVYYCAREGNVDTTMIFDYWGQGTLVTVSS
VL: AIQMTQSPSSLSASVGDRVTITCRASQGIRNDLGWYQQKPGKAPKLLIYAASSLQSGVPSRFAGRGSGTDFTLTISSLQPEDFATYYCLQDFNYPWHFGQGTKVEIK
notes: as for B1
B3: H4H12166P5 (antibody, human IgG4, V domains shown)
VH: QVQLQESGPGLVKPSETLSLTCTVSGDSVSSSYWTWIRQPPGKGLEWIGYIYYSGSSNYNPSLKSRATISVDTSKNQFSLKLSSVTAADTAVYYCAREGNVDTTMIHDYWGQGTLVTVSS
VL: AIQMTQSPSSLSASVGDRVTITCRASQGIRNDLGWYQQKPGKAPKLLIYAASSLQSGVPSRFAGRGSGTDFTLTISSLQPEDFATYYCLQDFNYPWTFGQGTKVEIK
notes: as for B1
B4: H4H12166P3 (antibody, human IgG4, V domains shown)
VH: QVQLQESGPGLVKPSETLSLTCTVSGDSVSSSYWTWIRQPPGKGLEWIGYIYYSGSSNYNPSLKSRATISVDTSKNQFSLKLSSVTAADTAVYYCAREHNVDTTMIFDYWGQGTLVTVSS
VL: AIQMTQSPSSLSASVGDRVTITCRASQGIRNDLGWYQQKPGKAPKLLIYAASSLQSGVPSRFAGRGSGTDFTLTISSLQPEDFATYYCLQDFNYPWTFGQGTKVEIK
B5: H4H12164P (antibody, human IgG4, V domains shown)
VH: EVQLVESGGGLVRSGGSLRLSCAASGFTFNRYAMTWVRQAPGKGLEWVSAISGSGSSTYYTDSVKGRFTISRDNSKNSVDLQMHSLRVEDTAIYYCARGTTVTTGYGMDVWGQGTTVTVSS
VL: DIQMTQSPSSLSASVGDRVTFTCQASQDITNSLNWYQQKPGRAPKLLIYDASYLKAGVPSRFSGSGSGTDFTFTISSLQPEDIATYYCQQYDDLPYTFGQGTKLEIK
notes: H4H: human IgG4 Fc with S108P hinge mutation
B6: H4H12171P (antibody, human IgG4, V domains shown)
VH: EVQLVESGGGVVRPGGSLRLSCAASGFTFDEYGMTWVRQVPGKGLEWVSGITWNGGFTDYTDSVKGRFTSSRDNAKNSLYLQMNSLRAEDTALYYCARDGYSSSWGAYDIWGQGTMVTVSS
VL: DIQMTQSPSSLSASVGDRVTITCRASQSISTYLNWYQQKPGKAPKLLIYAASSLQSGVPLRFSGSGSGTDFTLTISSLQPEDFASYFCQQSYSTPYTFGQGTKLEIK
notes: as for B5

Assays:
human C5 [1] = molecular target: T2, human C5 (human, UniProt P01031 19-1676); test: cell-based or functional assay
African green monkey C5 [2] = molecular target: T3, African green monkey C5 (African green monkey); test: cell-based or functional assay
human C5 R885H-mmh [3] = molecular target: T4, human C5 R885H-mmh (human, UniProt P01031 19-1676); test: cell-based or functional assay
human C5 [4] = molecular target: T2, human C5; test: cell-based or functional assay; remark: listed apart in the source
human C5 R885C-mmh [5] = molecular target: T5, human C5 R885C-mmh (human, UniProt P01031 19-1676); test: cell-based or functional assay
human C5 [6] = molecular target: T2, human C5; test: SPR (Biacore), mAb captured, dissociation of human C5 at pH7.4 vs pH6.0, 37°C
Method in brief: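 Anti-C5 mAbs (human IgG4 Fc) captured on an amine-coupled mouse anti-human Fc surface; recombinant C5 dissociation followed by Biacore T200 in PBS-T (0.01M phosphate, 0.15M NaCl, 0.05% Tween-20) at pH7.4 or pH6.0. Dissociative half-life (t½) calculated from kd.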

monkey C5-mmh [7] = molecular target: T1, monkey C5-mmh; test: SPR (Biacore), mAb captured, dissociation of monkey C5 at pH7.4 vs pH6.0, 25°C
African green monkey C5 [8] = molecular target: T3, African green monkey C5; test: cell-based or functional assay; remark: listed apart in the source
human C5 [9] = molecular target: T2, human C5; test: cell-based or functional assay; remark: listed apart in the source
monkey C5-mmh [10] = molecular target: T1, monkey C5-mmh; test: SPR (Biacore), mAb captured, dissociation of monkey C5 at pH7.4 vs pH6.0, 37°C
Cynomolgus monkey C5 = Cynomolgus monkey C5 (cynomolgus monkey, UniProt A0A2K5U1T1 19-1676); test: cell-based or functional assay
African green monkey C5 [11] = molecular target: T3, African green monkey C5; test: cell-based or functional assay; remark: listed apart in the source
human C5 R885H-mmh [12] = molecular target: T4, human C5 R885H-mmh; test: cell-based or functional assay; remark: listed apart in the source
human C5 [13] = molecular target: T2, human C5; test: cell-based or functional assay; remark: listed apart in the source
human C5 R885C-mmh [14] = molecular target: T5, human C5 R885C-mmh; test: cell-based or functional assay; remark: listed apart in the source

| Binder | Human AP % Max Inhibition, hemolysis assay, 5% NHS (human C5 [1]) | Human AP IC50, hemolysis assay, 5% NHS (human C5 [1]) | Human CP % Max Inhibition, hemolysis assay, 5% NHS (human C5 [1]) | Human CP IC50, hemolysis assay, 5% NHS (human C5 [1]) | IC50, inhibition of CDC of Daudi cells, 1.66% African Green monkey serum, 10 nM anti-CD20 antibody (African green monkey C5 [2]) | IC50, inhibition of CDC of Daudi cells, C5 depleted human serum and 6.6 nM C5 Variant R885H, 7 nM anti-CD20 antibody (human C5 R885H-mmh [3]) | IC50, inhibition of CDC of Daudi cells, 1.66% human serum, 2 nM anti-CD20 antibody (human C5 [4]) | IC50, inhibition of CDC of Daudi cells, C5 depleted human serum and 6.6 nM C5 Variant R885C, 30 nM anti-CD20 antibody (human C5 R885C-mmh [5]) | t½ Ratio pH7.4/pH6.0 (human C5 [6]) | Max % Inhibition of CDC of Daudi cells, 1.66% African Green monkey serum, 10 nM anti-CD20 antibody (African green monkey C5 [2]) | t½ Ratio pH7.4/pH6.0 (monkey C5-mmh [7]) | AGM AP % Max Inhibition, hemolysis assay, 5% serum (African green monkey C5 [8]) | AGM CP % Max Inhibition, hemolysis assay, 5% serum (African green monkey C5 [8]) | AGM Serum AP IC50, hemolysis assay, 5% serum (African green monkey C5 [8]) | Human AP % Max Inhibition, hemolysis assay, NHS (human C5 [9]) | Human AP IC50, hemolysis assay, NHS (human C5 [9]) | Human CP % Max Inhibition, hemolysis assay, NHS (human C5 [9]) | Human CP IC50, hemolysis assay, NHS (human C5 [9]) | t½ Ratio pH7.4/pH6.0 (monkey C5-mmh [10]) | Cyno AP % Max Inhibition, hemolysis assay, 5% serum (Cynomolgus monkey C5) | also measured |
| --- | --- | --- | --- | --- | --- | --- | --- | --- | --- | --- | --- | --- | --- | --- | --- | --- | --- | --- | --- | --- | --- |
| B1 | 81.3% | 47.8 nM | 98.2% | 15.9 nM | 9.7 nM | 1.7 nM | 3.7 nM | 1.2 nM | 7.3 | – | – | – | – | – | – | – | – | – | – | – | – |
| B2 | 77% | 31.7 nM | 98.6% | 13.2 nM | 7.9 nM | 1.5 nM | 3.5 nM | 0.96 nM | 7.6 | – | – | – | – | – | – | – | – | – | – | – | – |
| B3 | 77.7% | 65.5 nM | 97.1% | 14.9 nM | > 30 nM | 2.1 nM | 4.9 nM | 1.4 nM | 7.6 | 75% | – | – | – | – | – | – | – | – | – | – | – |
| B4 | – | – | – | – | > 30 nM | 2.9 nM | – | 1.7 nM | – | 64% | – | – | – | – | – | – | – | – | – | – | – |
| B5 | – | – | – | – | – | – | – | – | ≤ 0.1 | – | 2.9 | 15.6% | 85.8% | 178 nM | 69.7% | 14.5 nM | 95.9% | 2.1 nM | 1.1 | 98.7% | AGM Serum CP IC50, hemolysis assay, 5% serum (African green monkey C5 [8]): 247 nM; Cyno CP % Max Inhibition, hemolysis assay, 5% serum (Cynomolgus monkey C5): 94.7%; Cyno Serum AP IC50, hemolysis assay, 5% serum (Cynomolgus monkey C5): 9.1 nM; Cyno Serum CP IC50, hemolysis assay, 5% serum (Cynomolgus monkey C5): 19.6 nM; IC50, inhibition of CDC of Daudi cells, 1.66% African Green monkey serum (African green monkey C5 [11]): 5.8 nM; IC50, inhibition of CDC of Daudi cells, C5 depleted human serum and 6.6 nM C5 Variant R885H (human C5 R885H-mmh [12]): 1.8 nM; IC50, inhibition of CDC of Daudi cells, 1.66% human serum (human C5 [13]): 2.4 nM; IC50, inhibition of CDC of Daudi cells, C5 depleted human serum and 6.6 nM C5 Variant R885C (human C5 R885C-mmh [14]): 0.82 nM |
| B6 | – | – | – | – | – | – | – | – | 3.7 | – | 2.1 | 69.7% | 17.8% | 23.3 nM | 42% | 15.5 nM | 94.9% | 2.33 nM | 4.7 | 98.8% | Cyno CP % Max Inhibition, hemolysis assay, 5% serum (Cynomolgus monkey C5): 92.9%; Cyno Serum AP IC50, hemolysis assay, 5% serum (Cynomolgus monkey C5): 7.2 nM; Cyno Serum CP IC50, hemolysis assay, 5% serum (Cynomolgus monkey C5): 8.7 nM; IC50, inhibition of CDC of Daudi cells, 1.66% African Green monkey serum (African green monkey C5 [11]): 3.3 nM; IC50, inhibition of CDC of Daudi cells, C5 depleted human serum and 6.6 nM C5 Variant R885H (human C5 R885H-mmh [12]): 1.6 nM; IC50, inhibition of CDC of Daudi cells, 1.66% human serum (human C5 [13]): 1.9 nM; IC50, inhibition of CDC of Daudi cells, C5 depleted human serum and 6.6 nM C5 Variant R885C (human C5 R885C-mmh [14]): 0.65 nM |
